Changes are numbered by the printed parent chain.
B1: anti-CLDN-5 ECR mAb clone 1B3 (antibody, V domains shown)
VH: QIQLVQSGPELKKPGETVKISCKASGYSFTAHGMSWVKQAPGKGLKWMGWINTYSGVPAYADDFKGRFAFSLETSPSTAFLQINNLKNEDTATYFCTRSHYDRKFGYWGQGTLVTVSA
VL: QAVVTQESALTTSPGETVTLTCRSSTGAVTTSNYANWVQEKPDHLFTGLIGDTNNRAPGVPARFSGSLIGDKAALTITGAQTGDEAIYFCALWYSNLWVFGGGTKLTVR
notes: source: hybridoma from an Antigen1-immunized BXSB mouse; ascitic fluid, purified (Protein G Sepharose); also reconstituted as recombinant antibody
B2: anti-CLDN-5 ECR mAb clone 1D1 (antibody, V domains shown)
VH: QVQLQQPGAEHVKPGASVKLSCKASGYTFTTYWIHWVKQRPGRGLEWIGRIAPNSGGTKYNENFKSKATLTVDRPSTTAYMQLSGLTSEDSAVYYCARWDFTFGTNLDYWGQGTTLTVSS
VL: DIVMTQSQKFMSTSVGDRVSITCKASQNVRTAVAWYQQKPGQSPKALIFLASNRHTGVPDRFTGSGSGTDFTLTITNVQSEDLADYFCLQHWTYPYTFGGGTKLEIK
notes: source: hybridoma from an Antigen2-immunized BXSB mouse; ascitic fluid, purified (Protein G Sepharose); also reconstituted as recombinant antibody
B3: anti-CLDN-5 ECR mAb clone 2B1 (antibody, V domains shown)
VH: B2 VH with H11L, Y32F, N54Y, K59T, N63K, S84I, G85S, F103Y, T105S
VL: B2 VL with T22P, F49Y, T76S, Q90G, T93D
notes: as for B2
B4: anti-CLDN-5 ECR mAb clone 2B12 (antibody, V domains shown)
VH: QVQLQQSGAELARPGASVKLSCKASGYTFTRFGMSWVKQRTGQGLEWIGEIYPGSGDTYYSENFKGKATLTADKSSGTAYMELRSLTSEDSAVYFCARWGIYYGNPYAMDYWGQGTSVTVSS
VL: DIVMTQAAPSVPVTPGESVSISCRSSKSLLHSNGNTYLYWFLQRPGQSPQLLIYRMSNLASGVPDRFSGSGSGTAFTLRISRVEAEDVGVYYCLQHLEYPFTFGSGTKLEIK
notes: as for B2

Molecular target: T1, AGIA-tagged human CLDN-5, cell-free synthesized proteoliposome (Homo sapiens, UniProt O00501)
T1 construct: claudin-5, human; codon-converted synthetic gene; The vector pEU-E01-AGIA-GW puts a start codon and the AGIA tag at the 5′-end of the cassette, though the label reads hCLDN-5-AGIA; also called hCLDN-5-AGIA; cell-free synthesized CLDN-5; source: wheat cell-free synthesis on liposomes, proteoliposomes collected by centrifugation; not shown: AGIA, N-terminal, kept
Experiment: ELISA; cell-free synthesized AGIA-tagged CLDN proteoliposomes immobilised on a microtiter plate overnight at 4 °C; mAb 10 µg/mL in 5% skimmed milk/T-TBS, 1 h at room temperature; HRP anti-mouse IgG + IgM
Conditions: both partners purified

T1 sequence (O00501 whole entry): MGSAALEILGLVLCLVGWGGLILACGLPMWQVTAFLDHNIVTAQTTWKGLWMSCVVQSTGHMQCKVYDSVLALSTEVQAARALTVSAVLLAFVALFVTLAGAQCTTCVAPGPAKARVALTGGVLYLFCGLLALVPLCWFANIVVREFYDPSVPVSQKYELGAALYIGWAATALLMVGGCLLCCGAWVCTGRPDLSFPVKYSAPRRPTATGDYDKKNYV

Row | Binder | binding result
1 | B1 | binds
2 | B2 | binds
3 | B3 | binds

Molecular target: T2, human claudin-5 expressed in HT-1080 cells (Homo sapiens (Human)., UniProt O00501)
T2 construct: claudin-5, human; In the western blot the same protein stood denatured in the cell lysate; The TEER assays used MDCKII cells expressing human CLDN-5; also called human CLDN-5; hCLDN-5; source: HT-1080 cells, stably expressing; on cells and in lysate
Experiment: flow cytometry on cells; HT-1080/hCLDN-5 cells with purified mAb at 0.0024–40 µg/mL; mean fluorescence intensity fitted to Y = Bmax • X/(Kd + X); apparent dissociation constant; three independent experiments
Conditions: one partner purified

T2 sequence (O00501 whole entry): as above

Row | Binder | Kd
4 | B4 | 7.37 nM

Molecular target: T3, human claudin-2 expressed in HT-1080 cells (Homo sapiens (Human)., UniProt P57739)
T3 construct: claudin-2, human; also called human CLDN-2; source: HT-1080 cells, stably expressing
Experiment: flow cytometry on cells; HT-1080 cells stably expressing CLDNs or CLDN-5 mutants, detached with 0.05% trypsin/0.02% EDTA; 5 µg/mL mAb; fluorescence-conjugated goat anti-mouse IgG
Conditions: one partner purified

T3 sequence (P57739 whole entry): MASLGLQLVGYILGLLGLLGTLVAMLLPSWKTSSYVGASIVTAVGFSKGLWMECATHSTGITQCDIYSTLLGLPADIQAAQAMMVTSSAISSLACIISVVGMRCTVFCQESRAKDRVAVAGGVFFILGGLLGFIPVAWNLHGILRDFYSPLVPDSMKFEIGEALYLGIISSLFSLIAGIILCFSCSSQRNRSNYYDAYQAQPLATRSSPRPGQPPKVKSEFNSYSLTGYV

Row | Binder | binding result
5 | B1 | no binding (tested: 5 µg/mL)
6 | B4 | no binding (tested: 5 µg/mL)
7 | B2 | no binding (tested: 5 µg/mL)
8 | B3 | no binding (tested: 5 µg/mL)

Molecular target: T4, human claudin-4 expressed in HT-1080 cells (Homo sapiens (Human)., UniProt O14493)
T4 construct: claudin-4, human; also called human CLDN-4; source: HT-1080 cells, stably expressing
Experiment: as above
Conditions: one partner purified

T4 sequence (O14493 whole entry): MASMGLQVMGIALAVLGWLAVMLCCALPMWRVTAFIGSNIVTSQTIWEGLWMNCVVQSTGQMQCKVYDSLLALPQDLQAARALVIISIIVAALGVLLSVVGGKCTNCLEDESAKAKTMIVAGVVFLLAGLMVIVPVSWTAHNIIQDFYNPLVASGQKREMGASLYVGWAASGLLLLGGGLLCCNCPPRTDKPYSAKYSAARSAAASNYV

Row | Binder | binding result
9 | B1 | no binding (tested: 5 µg/mL)
10 | B4 | no binding (tested: 5 µg/mL)
11 | B2 | no binding (tested: 5 µg/mL)
12 | B3 | no binding (tested: 5 µg/mL)

Molecular target: T5, mouse claudin-5 expressed in HT-1080 cells (Mus musculus (Mouse)., UniProt O54942)
T5 construct: claudin-5, mouse; The TEER assays used MDCKII cells expressing mouse CLDN-5; also called mouse CLDN-5; mCLDN-5; source: HT-1080 cells, stably expressing
Experiment: as above
Conditions: one partner purified

T5 sequence (O54942 whole entry): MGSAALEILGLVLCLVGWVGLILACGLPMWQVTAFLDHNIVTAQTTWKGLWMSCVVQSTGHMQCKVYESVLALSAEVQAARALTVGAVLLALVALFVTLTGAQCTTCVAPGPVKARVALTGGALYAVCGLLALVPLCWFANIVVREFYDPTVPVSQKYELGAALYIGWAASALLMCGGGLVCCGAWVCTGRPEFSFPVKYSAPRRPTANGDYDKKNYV

Row | Binder | binding result
13 | B1 | no binding (tested: 5 µg/mL)
14 | B4 | no binding (tested: 5 µg/mL)
15 | B2 | no binding (tested: 5 µg/mL)
16 | B3 | no binding (tested: 5 µg/mL)

Molecular target: T2, human claudin-5 expressed in HT-1080 …
Experiment: as above
Conditions: one partner purified

Row | Binder | binding result
17 | B1 | binds
18 | B2 | binds
19 | B3 | binds

Molecular target: T6, human claudin-6 expressed in HT-1080 cells (Homo sapiens (Human)., UniProt P56747)
T6 construct: claudin-6, human; also called human CLDN-6; source: HT-1080 cells, stably expressing
Experiment: as above
Conditions: one partner purified

T6 sequence (P56747 whole entry): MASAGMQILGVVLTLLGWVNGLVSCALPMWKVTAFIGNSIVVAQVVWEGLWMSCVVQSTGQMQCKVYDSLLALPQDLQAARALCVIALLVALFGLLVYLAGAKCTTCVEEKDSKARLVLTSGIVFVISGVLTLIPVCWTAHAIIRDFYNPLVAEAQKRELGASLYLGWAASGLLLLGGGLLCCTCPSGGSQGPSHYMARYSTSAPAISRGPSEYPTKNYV

Row | Binder | binding result
20 | B1 | no binding (tested: 5 µg/mL)
21 | B4 | no binding (tested: 5 µg/mL)
22 | B2 | no binding (tested: 5 µg/mL)
23 | B3 | no binding (tested: 5 µg/mL)

Molecular target: T7, human claudin-7 expressed in HT-1080 cells (Homo sapiens (Human)., UniProt O95471)
T7 construct: claudin-7, human; also called human CLDN-7; source: HT-1080 cells, stably expressing
Experiment: as above
Conditions: one partner purified

T7 sequence (O95471 whole entry): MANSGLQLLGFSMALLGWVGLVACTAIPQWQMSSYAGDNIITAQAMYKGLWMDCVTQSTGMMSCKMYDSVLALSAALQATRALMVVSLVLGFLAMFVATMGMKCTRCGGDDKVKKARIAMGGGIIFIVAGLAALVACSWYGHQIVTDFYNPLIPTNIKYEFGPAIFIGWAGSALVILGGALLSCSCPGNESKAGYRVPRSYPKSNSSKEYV

Row | Binder | binding result
24 | B1 | no binding (tested: 5 µg/mL)
25 | B4 | no binding (tested: 5 µg/mL)
26 | B2 | no binding (tested: 5 µg/mL)
27 | B3 | no binding (tested: 5 µg/mL)

Molecular target: T8, human claudin-1 expressed in HT-1080 cells (Homo sapiens (Human)., UniProt O95832)
T8 construct: claudin-1, human; also called human CLDN-1; source: HT-1080 cells, stably expressing
Experiment: as above
Conditions: one partner purified

T8 sequence (O95832 whole entry): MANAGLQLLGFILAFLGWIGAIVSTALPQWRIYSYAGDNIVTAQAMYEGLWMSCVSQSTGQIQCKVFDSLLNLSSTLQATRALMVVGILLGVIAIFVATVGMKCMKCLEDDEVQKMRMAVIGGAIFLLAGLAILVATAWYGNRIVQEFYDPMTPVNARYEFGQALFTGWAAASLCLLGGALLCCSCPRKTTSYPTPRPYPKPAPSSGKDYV

Row | Binder | binding result
28 | B1 | no binding (tested: 5 µg/mL)
29 | B4 | no binding (tested: 5 µg/mL)
30 | B2 | no binding (tested: 5 µg/mL)
31 | B3 | no binding (tested: 5 µg/mL)

Molecular target: T9, human claudin-3 expressed in HT-1080 cells (Homo sapiens (Human)., UniProt O15551)
T9 construct: claudin-3, human; also called human CLDN-3; source: HT-1080 cells, stably expressing
Experiment: as above
Conditions: one partner purified

T9 sequence (O15551 whole entry): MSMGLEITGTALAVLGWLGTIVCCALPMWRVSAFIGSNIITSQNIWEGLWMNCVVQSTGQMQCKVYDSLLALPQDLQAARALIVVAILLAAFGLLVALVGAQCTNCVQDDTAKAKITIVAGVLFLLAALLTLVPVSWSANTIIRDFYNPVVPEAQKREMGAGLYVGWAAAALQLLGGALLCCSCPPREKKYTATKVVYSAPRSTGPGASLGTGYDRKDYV

Row | Binder | binding result
32 | B1 | no binding (tested: 5 µg/mL)
33 | B4 | no binding (tested: 5 µg/mL)
34 | B2 | no binding (tested: 5 µg/mL)
35 | B3 | no binding (tested: 5 µg/mL)

Source: PMC5976803, “Engineered membrane protein antigens successfully induce antibodies against extracellular regions of claudin-5” (Scientific Reports, 2018)
